According to US20040018972A1 (TRILLIUM THERAPEUTICS, published 2004):

Key:
[1] = molecular target: T1, CD80 (B7-1) on mouse dendritic cells (mouse, UniProt Q00609 38-306); assay: co-capping: DC pre-incubated with SH1.2.47 and anti-rat Ig at 37 C, then FACS staining of the other surface molecules
T1 construct: whole, on cells
T1 sequence (looked up): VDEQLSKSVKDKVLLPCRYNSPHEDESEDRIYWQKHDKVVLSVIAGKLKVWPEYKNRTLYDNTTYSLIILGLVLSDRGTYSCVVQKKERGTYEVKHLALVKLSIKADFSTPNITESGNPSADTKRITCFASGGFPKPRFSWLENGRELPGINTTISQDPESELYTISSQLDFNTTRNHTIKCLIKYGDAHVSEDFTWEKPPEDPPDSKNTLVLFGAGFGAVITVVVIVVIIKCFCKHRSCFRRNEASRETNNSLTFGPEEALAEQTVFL
Description: (§1) FIG. 3 is FACS analysis of the effect of pretreatment of DC with anti-MD-1 antibody on cell surface expression of molecules on dendritic cells. Cells in the columns shown were preincubated (60 minutes at 4° C.) in medium, rat anti-DC26, or anti-MD-1 (SH1.2.47), prior to washing and incubation at 37° C. with anti-rat Ig. Thereafter cells were stained with different mAbs as in FIG. 2.

[2] = molecular target: T2, DEC205 on mouse dendritic cells (mouse, UniProt Q60767 28-1723); assay: as above
T2 construct: whole, on cells
Description: as §1

[3] = molecular target: T3, CD86 (B7-2) on mouse dendritic cells (mouse, UniProt P42082 24-309); assay: as above
T3 construct: whole, on cells
T3 sequence (looked up): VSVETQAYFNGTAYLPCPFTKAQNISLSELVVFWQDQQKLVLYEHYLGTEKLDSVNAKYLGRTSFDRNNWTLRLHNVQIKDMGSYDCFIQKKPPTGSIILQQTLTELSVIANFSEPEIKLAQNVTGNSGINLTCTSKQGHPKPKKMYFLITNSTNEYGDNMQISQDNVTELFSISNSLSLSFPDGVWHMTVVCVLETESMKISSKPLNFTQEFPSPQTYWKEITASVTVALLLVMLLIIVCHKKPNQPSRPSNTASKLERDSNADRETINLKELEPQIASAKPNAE
Description: as §1

[4] = molecular target: T4, OX-2 (CD200) on mouse dendritic cells (mouse, UniProt O54901 31-278); assay: as above
T4 construct: whole, on cells
T4 sequence (looked up): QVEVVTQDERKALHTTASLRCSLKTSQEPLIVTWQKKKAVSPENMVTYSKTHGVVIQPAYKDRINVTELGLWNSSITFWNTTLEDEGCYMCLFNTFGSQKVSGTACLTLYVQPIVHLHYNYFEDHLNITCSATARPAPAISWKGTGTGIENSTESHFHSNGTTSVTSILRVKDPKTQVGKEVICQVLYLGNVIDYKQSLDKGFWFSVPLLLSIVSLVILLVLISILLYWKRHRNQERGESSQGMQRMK
Description: as §1

[5] = molecular target: T5, CD14 on mouse dendritic cells (mouse, UniProt P10810 16-336); assay: co-capping on DC: anti-CD14 staining reduced after capping of MD-1 with SH1.2.47 (FACS)
T5 construct: whole, on cells
T5 sequence (looked up): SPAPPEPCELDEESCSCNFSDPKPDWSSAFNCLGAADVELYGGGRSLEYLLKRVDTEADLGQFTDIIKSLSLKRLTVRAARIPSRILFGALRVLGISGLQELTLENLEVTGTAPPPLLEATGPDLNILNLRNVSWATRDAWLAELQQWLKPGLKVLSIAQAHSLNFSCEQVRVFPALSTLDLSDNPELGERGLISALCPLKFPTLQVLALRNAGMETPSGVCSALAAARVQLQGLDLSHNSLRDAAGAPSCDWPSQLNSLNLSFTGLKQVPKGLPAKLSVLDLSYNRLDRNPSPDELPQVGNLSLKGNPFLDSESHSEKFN
Description: as §1

T2 sequence (Q60767 28-1723): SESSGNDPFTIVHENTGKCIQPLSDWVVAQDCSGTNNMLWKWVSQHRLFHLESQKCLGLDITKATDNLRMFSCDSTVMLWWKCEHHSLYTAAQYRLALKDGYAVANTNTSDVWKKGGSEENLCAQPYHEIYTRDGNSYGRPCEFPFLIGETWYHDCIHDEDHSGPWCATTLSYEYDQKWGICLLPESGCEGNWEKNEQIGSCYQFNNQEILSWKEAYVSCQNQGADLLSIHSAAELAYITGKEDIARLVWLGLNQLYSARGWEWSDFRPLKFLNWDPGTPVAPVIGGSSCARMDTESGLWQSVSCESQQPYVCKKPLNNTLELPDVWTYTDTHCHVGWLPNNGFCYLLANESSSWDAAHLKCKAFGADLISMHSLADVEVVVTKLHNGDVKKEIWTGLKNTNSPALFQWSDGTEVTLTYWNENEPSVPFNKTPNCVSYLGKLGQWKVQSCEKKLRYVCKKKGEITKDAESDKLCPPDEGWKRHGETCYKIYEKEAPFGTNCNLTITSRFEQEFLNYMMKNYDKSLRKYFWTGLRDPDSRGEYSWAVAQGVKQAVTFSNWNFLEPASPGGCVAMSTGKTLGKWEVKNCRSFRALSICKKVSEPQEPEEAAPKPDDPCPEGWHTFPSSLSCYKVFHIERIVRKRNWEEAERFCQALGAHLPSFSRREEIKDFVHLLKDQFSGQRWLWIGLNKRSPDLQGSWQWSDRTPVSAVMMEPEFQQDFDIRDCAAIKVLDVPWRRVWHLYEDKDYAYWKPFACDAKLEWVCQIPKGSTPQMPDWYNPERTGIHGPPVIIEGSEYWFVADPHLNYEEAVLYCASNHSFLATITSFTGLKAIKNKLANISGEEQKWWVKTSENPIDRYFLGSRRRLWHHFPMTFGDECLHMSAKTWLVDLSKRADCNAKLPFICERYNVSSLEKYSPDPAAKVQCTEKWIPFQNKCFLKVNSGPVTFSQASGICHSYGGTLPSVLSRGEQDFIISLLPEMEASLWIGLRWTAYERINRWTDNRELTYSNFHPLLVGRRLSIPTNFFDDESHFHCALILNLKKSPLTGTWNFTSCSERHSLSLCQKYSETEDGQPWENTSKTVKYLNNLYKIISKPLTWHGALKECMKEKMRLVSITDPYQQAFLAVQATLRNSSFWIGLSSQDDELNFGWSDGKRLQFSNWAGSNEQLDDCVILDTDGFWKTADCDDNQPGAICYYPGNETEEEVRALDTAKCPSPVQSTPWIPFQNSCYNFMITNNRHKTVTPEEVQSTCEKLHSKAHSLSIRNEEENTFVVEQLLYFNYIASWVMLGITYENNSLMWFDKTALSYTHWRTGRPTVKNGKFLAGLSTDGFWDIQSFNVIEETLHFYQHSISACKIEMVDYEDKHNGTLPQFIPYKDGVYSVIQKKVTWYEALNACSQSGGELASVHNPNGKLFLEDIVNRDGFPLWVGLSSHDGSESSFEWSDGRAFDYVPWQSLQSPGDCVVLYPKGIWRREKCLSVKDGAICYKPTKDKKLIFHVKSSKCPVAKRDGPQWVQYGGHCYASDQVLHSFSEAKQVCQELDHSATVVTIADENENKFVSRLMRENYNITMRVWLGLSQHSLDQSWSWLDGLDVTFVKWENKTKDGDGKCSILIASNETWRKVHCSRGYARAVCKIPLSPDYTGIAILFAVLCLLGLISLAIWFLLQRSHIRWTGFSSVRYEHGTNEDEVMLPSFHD

B1: murine MD-1 (other, UniProt O88188 20-162, looked up)
chain: DHGSENGWPKHTACNSGGLEVVYQSCDPLQDFGLSIDQCSKQIQSNLNIRFGIILRQDIRKLFLDITLMAKGSSILNYSYPLCEEDQPKFSFCGRRKGEQIYYAGPVNNPGLDVPQGEYQLLLELYNENRATVACANATVTSS
notes: whole, on cells; also called mouse MD-1
B1: no binding [1]; no binding [2]; no binding [3]. B1: no binding [4]; binds [5].
